B1: TC-PTP: human non-receptor tyrosine PTPase, from Calbiochem (protein)
chain: MPTTIEREFEELDTQRRWQPLYLEIRNESHDYPHRVAKFPENRNRNRYRDVSPYDHSRVKLQNAENDYINASLVDIEEAQRSYILTQGPLPNTCCHFWLMVWQQKTKAVVMLNRIVEKESVKCAQYWPTDDQEMLFKETGFSVKLLSEDVKSYYTVHLLQLENINSGETRTISHFHYTTWPDFGVPESPASFLNFLFKVRESGSLNPDHGPAVIHCSAGIGRSGTFSLVDTCLVLMEKGDDINIKQVLLNMRKYRMGLIQTPDQLRFSYMAIIEGAKCIKGDSSIQKRWKELSKEDLSPAFDHSPNKIMTEKYNGNR
B2: lambda PTPase: bacterial lambda PTPase, from Calbiochem (protein)
chain: MRYYEKIDGSKYRNIWVVGDLHGCYTNLMNKLDTIGFDNKKDLLISVGDLVDRGAENVECLELITFPWFRAVRGNHEQMMIDGLSERGNVNHWLLNGGGWFFNLDYDKEILAKALAHKADELPLIIELVSKDKKYVICHADYPFDEYEFGKPVDHQQVIWNRERISNSQNGIVKEIKGADTFIFGHTPAVKPLKFANQMYIDTGAVFCGNLTLIQVQGEGA
B3: PTPase-dead rCD45: PTPase-dead recombinant CD45, D1:C828S mutant (protein, UniProt P08575 26-1306, looked up, variant C828S)
Receptor-type …: QSPTPSPTGLTTAKMPSVPLSSDPLPTHTTAFSPASTFERENDFSETTTSLSPDNTSTQVSPDSLDNASAFNTTGVSSVQTPHLPTHADSQTPSAGTDTQTFSGSAANAKLNPTPGSNAISDVPGERSTASTFPTDPVSPLTTTLSLAHHSSAALPARTSNTTITANTSDAYLNASETTTLSPSGSAVISTTTIATTPSKPTCDEKYANITVDYLYNKETKLFTAKLNVNENVECGNNTCTNNEVHNLTECKNASVSISHNSCTAPDKTLILDVPPGVEKFQLHDCTQVEKADTTICLKWKNIETFTCDTQNITYRFQCGNMIFDNKEIKLENLEPEHEYKCDSEILYNNHKFTNASKIIKTDFGSPGEPQIIFCRSEAAHQGVITWNPPQRSFHNFTLCYIKETEKDCLNLDKNLIKYDLQNLKPYTKYVLSLHAYIIAKVQRNGSAAMCHFTTKSAPPSQVWNMTVSMTSDNSMHVKCRPPRDRNGPHERYHLEVEAGNTLVRNESHKNCDFRVKDLQYSTDYTFKAYFHNGDYPGEPFILHHSTSYNSKALIAFLAFLIIVTSIALLVVLYKIYDLHKKRSCNLDEQQELVERDDEKQLMNVEPIHADILLETYKRKIADEGRLFLAEFQSIPRVFSKFPIKEARKPFNQNKNRYVDILPYDYNRVELSEINGDAGSNYINASYIDGFKEPRKYIAAQGPRDETVDDFWRMIWEQKATVIVMVTRCEEGNRNKCAEYWPSMEEGTRAFGDVVVKINQHKRCPDYIIQKLNIVNKKEKATGREVTHIQFTSWPDHGVPEDPHLLLKLRRRVNAFSNFFSGPIVVHSSAGVGRTGTYIGIDAMLEGLEAENKVDVYGYVVKLRRQRCLMVQVEAQYILIHQALVEYNQFGETEVNLSELHPYLHNMKKRDPPSEPSPLEAEFQRLPSYRSWRTQHIGNQEENKSKNRNSNVIPYDYNRVPLKHELEMSKESEHDSDESSDDDSDSEEPSKYINASFIMSYWKPEVMIAAQGPLKETIGDFWQMIFQRKVKVIVMLTELKHGDQEICAQYWGEGKQTYGDIEVDLKDTDKSSTYTLRVFELRHSKRKDSRTVYQYQYTNWSVEQLPAEPKELISMIQVVKQKLPQKNSSEGNKHHKSTPLLIHCRDGSQQTGIFCALLNLLESAETEEVVDIFQVVKALRKARPGMVSTFEQYQFLYDVIASTYPAQNGQVKKNNHQEDKIEFDNEVDKVKQDANCVNPLGAPEKLPEAKEQAEGSEPTSGTEGPEHSVNGPASPALNQGS

Tested on: JAK2
Test: in vitro tyrosine phosphatase assay, substrate JAK2
Format: biochemical, mouse
Details: 30° C., 20 min
Protocol: For tyrosine phosphatase assays, immunoprecipitated Lyn, JAKs or STATs from lysates of 10^7 BMMCs (for Lyn, JAK1, JAK2, STAT3 and STAT5) or macrophages (for Tyk2) were washed in lysis buffer and phosphatase reaction buffer [Felberg et al., J. Biol. Chem. 273:17839-17845, 1998]. The amounts of Lyn and JAK2 in the immunoprecipitates used in FIG. 3A were 72 ng and 48 ng, respectively, as determined by silver staining. Recombinant CD45 was added to substrates in the presence or absence of 0.1 mM Na3 VO4 followed by incubation at 30° C. for 20 min. Tyrosine phosphorylation was monitored by immunoblotting with phosphotyrosine-specific antibodies. The extent of tyrosine phosphorylation and amount of substrates were determined by quantifying the intensities of the immunoblots with NIH Image 1.61 software. Kinase activity in anti-Lyn or anti-JAK immunoprecipitates was assessed by an in vitro kinase assay with Raytide (Oncogen Science) as a substrate or using authophosphorylation [Lui et al., Genes Dev. 13:786-791, 1999]. In vitro binding assays were performed as described [Felberg et al., J. Biol. Chem. 273:17839-17845, 1998], using 1 μg of soluble GST, GST-CD45-D2, or GST-PTPase-dead CD45 (D1:C828S). EMSAs were as described [Charurvedi et al., Mol. Cell. Biol. 17:3295-3304, 1997]. The sequences of the EMSA probes were: STAT3, 5′-[…]-3′ (SEQ ID NO: 1); STAT3 mutant, 5′-[…]-3′ (SEQ ID NO: 2).
To determine whether CD45 could directly dephosphorylate JAKs and/or STATs, phosphatase assays were used in in vitro studies with recombinant CD45. The rCD45 employed contained the intracellular dual PTPase domains with a relative molecular mas of 97,000 (Mr 97K) (the catalytic D1 and the non-catalytic D2 domains) of CD45 but lacked its extracellular regions. […] Phosphorylation was examined with anti-phosphoryrosine, anti-phospho-Tyr 705 STAT3 (P-Y705-STAT3), and anti-phospho-Try 1007/Try 1008 JAK2 (P-Y1007/1008-JAK2). Assays were performed with 10U (for JAK2) or 90U (for STAT3) of rCD45. […]

Row | Molecule | dephosphorylation of JAK2
1 | B1 | did not dephosphorylate JAK2
2 | B2 | did not dephosphorylate JAK2
3 | B3 | did not dephosphorylate JAK2

Reference: patent US20030175270A1, “Methods of regulating cytokine receptor signaling” (priority 2002, published 2003)
